Results: patent US20030113743A1 (BAYLOR COLLEGE OF MEDICINE HYBRITECH, published 2003)

Tests used:
Assay in all cases: covalent complex formation, SDS-PAGE and Western blot with HK1G586.1
[1] = biological target: T1, α1-antitrypsin (alpha 1-protease inhibitor) (human, UniProt P01009 25-418)
T1 construct: Serpin, used at 20 µM
Procedure: (§1) FIG. 18 depicts Western blot analysis of hK2 incubated with protease inhibitors. Each sample was separated on a 8-25% gradient SDS-PAGE, blotted and probed with HK1G586.1. hK2 was incubated for 4 hours at 37° C. with the following inhibitors: Lane 1, antichymotrypsin (ACT); lane 2, alpha 2-antiplasmin; lane 3, anti-thrombin III; lane 4, alpha 1-protease inhibitor (anti-trypsin); lane 5, alpha 2-macroglobulin; lanes 1 and 2 show a covalent complex of the predicted Mr of 90-100 kD. Serpin inhibitors were employed at 20 μM, macroglobulin at 2.8 μM, and hK2 at 0.175 μM.
(§2) To test for covalent complex formation, 0.175 μM hK2 was incubated with 20 μM of inhibitor at pH 8 in 100 mM borate buffer. Inhibitors tested were 1-antichymotrypsin, 1-antitrypsin, 1-antiplasmin, antithrombin and 2-macroglobulin. To 5 μl of hK2 (10 μg/ml) was added the calculated μg of inhibitor prepared in 100 mM borate buffer and, if needed, each sample brought up to a total volume of 10 μl. Samples were incubated for 3 hours at 37° C. whereupon 1.5 μl of 7 X PhastSystem SDS sample buffer containing 35% 2-mercaptoethanol was added and the sample boiled for 3 minutes in a water bath. Samples were diluted 1/4 in SDS sample buffer prior to application to SDS/PAGE and Western analyses.

alpha 2-antiplasmin = biological target: T2, alpha 2-antiplasmin (human, UniProt P08697 40-491, limits assumed)
T2 construct: Serpin, used at 20 µM; also called α2-antiplasmin; 1-antiplasmin
T2 sequence (looked up): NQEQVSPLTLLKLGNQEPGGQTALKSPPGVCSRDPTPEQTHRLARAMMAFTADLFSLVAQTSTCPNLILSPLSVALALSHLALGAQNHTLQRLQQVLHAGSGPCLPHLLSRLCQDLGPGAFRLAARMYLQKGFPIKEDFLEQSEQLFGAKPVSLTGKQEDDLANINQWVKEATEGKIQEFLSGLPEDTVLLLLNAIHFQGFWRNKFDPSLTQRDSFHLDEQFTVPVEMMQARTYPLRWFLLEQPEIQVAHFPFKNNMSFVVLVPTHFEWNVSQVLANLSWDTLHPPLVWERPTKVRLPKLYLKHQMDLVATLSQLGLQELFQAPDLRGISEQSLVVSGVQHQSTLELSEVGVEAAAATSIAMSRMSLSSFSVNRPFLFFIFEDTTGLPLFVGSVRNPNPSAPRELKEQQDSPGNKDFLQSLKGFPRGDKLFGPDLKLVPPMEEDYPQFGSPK
Procedure: as §1, §2

antichymotrypsin (ACT) = biological target: T3, antichymotrypsin (ACT) (human, UniProt P01011 24-423)
T3 construct: Serpin, used at 20 µM; also called 1-antichymotrypsin
T3 sequence (looked up): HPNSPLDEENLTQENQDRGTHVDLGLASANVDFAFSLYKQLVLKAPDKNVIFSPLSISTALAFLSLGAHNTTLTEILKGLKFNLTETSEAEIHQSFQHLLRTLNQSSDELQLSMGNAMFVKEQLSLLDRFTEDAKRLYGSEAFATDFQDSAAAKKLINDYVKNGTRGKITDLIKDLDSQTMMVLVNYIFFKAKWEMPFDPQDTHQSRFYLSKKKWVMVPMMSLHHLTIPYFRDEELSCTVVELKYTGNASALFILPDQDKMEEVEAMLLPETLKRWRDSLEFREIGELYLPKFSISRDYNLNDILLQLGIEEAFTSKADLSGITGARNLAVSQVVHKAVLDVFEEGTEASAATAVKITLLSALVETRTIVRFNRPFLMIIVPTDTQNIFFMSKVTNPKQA
Procedure: as §1, §2

antithrombin III = biological target: T4, antithrombin III (human, UniProt P01008 33-464)
T4 construct: Serpin, used at 20 µM
Procedure: as §1, §2

T4 sequence (P01008 33-464 limits assumed): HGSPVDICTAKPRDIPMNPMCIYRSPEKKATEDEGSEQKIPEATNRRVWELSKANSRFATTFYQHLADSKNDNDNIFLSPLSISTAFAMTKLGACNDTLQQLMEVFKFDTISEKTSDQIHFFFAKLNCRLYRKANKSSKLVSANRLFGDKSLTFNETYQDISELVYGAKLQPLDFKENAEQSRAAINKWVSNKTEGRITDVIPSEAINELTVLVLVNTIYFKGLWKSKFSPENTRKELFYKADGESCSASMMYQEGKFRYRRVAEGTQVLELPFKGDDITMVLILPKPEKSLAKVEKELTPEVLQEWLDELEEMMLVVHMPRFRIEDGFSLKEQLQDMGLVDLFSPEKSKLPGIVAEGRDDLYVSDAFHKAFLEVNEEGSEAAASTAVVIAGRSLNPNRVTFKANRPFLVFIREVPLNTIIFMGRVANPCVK
T1 sequence (P01009 25-418 limits assumed): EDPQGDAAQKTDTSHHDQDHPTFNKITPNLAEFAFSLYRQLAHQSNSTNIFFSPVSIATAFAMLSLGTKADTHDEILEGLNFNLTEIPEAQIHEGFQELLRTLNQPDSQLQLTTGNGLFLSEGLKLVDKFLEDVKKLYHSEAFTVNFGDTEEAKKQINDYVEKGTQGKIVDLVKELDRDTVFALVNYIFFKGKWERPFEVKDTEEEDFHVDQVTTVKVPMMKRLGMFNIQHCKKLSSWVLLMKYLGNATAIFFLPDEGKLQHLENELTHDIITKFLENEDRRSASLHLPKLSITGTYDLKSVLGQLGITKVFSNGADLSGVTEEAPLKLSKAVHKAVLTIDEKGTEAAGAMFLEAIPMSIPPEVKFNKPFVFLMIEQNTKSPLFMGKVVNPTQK

- binding result (alpha 2-antiplasmin): binds
- binding result (antichymotrypsin (ACT)): binds
B1: wild type mature hK2 (prostate-specific glandular kallikrein protein) (enzyme)
chain: not shown
notes: From spent medium of AV12-hK2, PC3-hK2 and DU145-hK2 cells, LNCaP medium, seminal fluid or prostate tissue, depending on the experiment; also called native hK2
- binding result [1]: no binding (tested: 20 µM inhibitor, 0.175 µM hK2)
- binding result (antithrombin III): no binding (tested: 20 µM inhibitor, 0.175 µM hK2)
